Reference: patent US20230038638A1, “COMPLEMENT FACTOR I-RELATED COMPOSITIONS AND METHODS” (published 2023)
Where a chain is given by its changes, count along the chain named.

Tests used:
human C4b (human) [1] = target: T1, human C4b (human) (UniProt P0C0L4)
T1 sequence: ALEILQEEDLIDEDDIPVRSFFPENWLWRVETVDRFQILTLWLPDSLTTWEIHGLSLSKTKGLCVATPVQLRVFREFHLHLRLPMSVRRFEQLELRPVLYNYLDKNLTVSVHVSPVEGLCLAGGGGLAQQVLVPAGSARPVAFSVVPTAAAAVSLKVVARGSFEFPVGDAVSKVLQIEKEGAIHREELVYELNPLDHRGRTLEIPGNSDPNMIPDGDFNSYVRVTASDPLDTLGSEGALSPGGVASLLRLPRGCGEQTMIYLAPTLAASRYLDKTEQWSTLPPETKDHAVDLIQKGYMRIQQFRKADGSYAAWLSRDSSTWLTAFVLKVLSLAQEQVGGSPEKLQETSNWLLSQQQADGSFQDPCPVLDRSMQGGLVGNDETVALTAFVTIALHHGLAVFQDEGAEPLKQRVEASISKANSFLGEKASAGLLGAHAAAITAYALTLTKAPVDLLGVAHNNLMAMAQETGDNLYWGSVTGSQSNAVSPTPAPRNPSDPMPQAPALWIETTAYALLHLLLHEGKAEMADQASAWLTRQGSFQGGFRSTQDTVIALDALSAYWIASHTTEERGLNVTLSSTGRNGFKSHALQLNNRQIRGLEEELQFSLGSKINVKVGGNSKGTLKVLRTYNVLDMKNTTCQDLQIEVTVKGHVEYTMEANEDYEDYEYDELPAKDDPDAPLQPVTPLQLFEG

[2] = target: soluble human C3b (human) (UniProt P01024)
human C4b (human) [3] = target: T2, human C4b (human) (UniProt P0C0L5)
T2 sequence: T1 sequence with A151T, D317G, P364L, C365S, L368I, D369H, N420S, V451A, L454R, S530A

Substance	C4c EC50 (human C4b (human) [1])	iC3b Screen Ref Fold (fold of CFI-HSA wild type) [2]	C4b Screen Ref Fold (fold of CFI-HSA wild type) (human C4b (human) [3])	C4c EC50 (nM) (human C4b (human) [1])	iC3b Screen Ref Fold (fold vs CFI-HSA wild type) [2]	C4b Screen Ref Fold (fold vs CFI-HSA wild type) (human C4b (human) [3])
CFI-HSA variant Y408L; E457G; N531G; P558S (enzyme)	26.6 nM	0.86	5.27			
CFI-HSA variant Y408L; E457G; P558S (enzyme)	67.3 nM	0.97	4.59			
CFI-HSA variant Y408L; N531G; D425K (enzyme)	50.1 nM	1.43	4.99			
CFI-HSA variant Y408L; N531G; D425R; E416A (enzyme)		2.15	1.41	60.6 nM		
CFI-HSA variant Y408L; N531G; E457G (enzyme)				94.4 nM	0.63	6.16
CFI-HSA variant Y408L; N531G; E457G; E461Q (enzyme)				84.8 nM	0.39	4.63
CFI-HSA variant Y408L; N531G; E457G; E461Q; F464Y (enzyme)				79.9 nM	0.51	6.12
CFI-HSA variant Y408L; N531G; E457G; E461Q; R462K (enzyme)				60 nM	0.64	6.07
CFI-HSA variant Y408L; N531G; E457G; E461Q; R462K; F464Y (enzyme)				82.1 nM	0.46	5.37
CFI-HSA variant Y408L; N531G; E457G; R462K; F464Y (enzyme)				45.8 nM	0.84	6.16
CFI-HSA variant Y408L; N531G; E461Q (enzyme)				51.5 nM	1.21	6.68
CFI-HSA variant Y408L; N531G; E461Q; R462K; F464Y (enzyme)				82.7 nM	0.92	5.97
CFI-HSA variant Y408L; N531G; K534Q (enzyme)	64.3 nM	1.03	5.13			
CFI-HSA variant Y408L; N531G; N422K (enzyme)	83.7 nM	1.94	3.78			
CFI-HSA variant Y408L; N531G; P535A (enzyme)				118 nM	1.02	5.22
CFI-HSA variant Y408L; N531G; P535G; D425K (enzyme)	65.4 nM	1.38	2.94			
CFI-HSA variant Y408L; N531G; P558S (enzyme)	77.5 nM	1.05	5.11			
CFI-HSA variant Y408P (enzyme)				338 nM	0.02	-0.01
CFI-HSA variant Y553H (enzyme)	85.5 nM	0.52	4.13	166 nM		
CFI-HSA variant Y553H; P558S (enzyme)	122 nM	0.63	2.14			
WT; GGSSGG (SEQ ID NO: 6); CR1(ccp15-17); GGSSGG (SEQ ID NO: 6); fH(ccp1-4) (enzyme)				60.3 nM	0.08	2.96
